In the assay the target is glutathione transferase (GST) tag-fused cGAS. Description: SEC + other: fluorescence correlation spectroscopy.

What is called stoichiometry N is a count of units in the complex or per binding partner. Consider “glutathione transferase (GST) tag-fused cGAS (enzyme)”, for which the stoichiometry N amounted to 2.
